# Source: paper PMC4070910, “Cathepsin S Signals via PAR2 and Generates a Novel Tethered Ligand Receptor Agonist” (PLoS ONE, 2014)
# “Also recorded” adds a separate entry of the source.
# B1: cathepsin S: Recombinant human cathepsin S, cysteine protease, expressed in E.coli, refolded and activated (protein, UniProt P25774 115-331, looked up)
# Cathepsin S: LPDSVDWREKGCVTEVKYQGSCGACWAFSAVGALEAQLKLKTGKLVSLSAQNLVDCSTEKYGNKGCNGGFMTTAFQYIIDNKGIDSDASYPYKAMDQKCQYDSKYRAATCSKYTELPYGREDVLKEAVANKGPVSVGVDARHPSFFLYRSGVYYEPSCTQNVNHGVLVVGYGDLNGKEYWLVKNSWGHNFGEEGYIRMARNKGNHCGIASFPSYPEI
# Assays:
# human PAR2 = experiment: IP1 (IP-One HTRF) assay in PAR2-transfected HeLa cells; type: cell-based; settings: 1 hour, 37°C, KVDGTS 100 µM, SLIGRL 10 µM, cathepsin S 1 µM
# Description: (§1) To determine the effect of PAR2 activation on Gq stimulation, we measured IP1, a downstream metabolite of IP3, using the IP-One HTRF assay from Cis Bio, Medford, MA. HeLa cells were transfected with salmon sperm DNA or PAR2 cDNA as described above, plated in 10 cm culture dishes and incubated at 37°C with 5% CO2. After 24 hours, the cells were trypsinized, counted, plated into 96-well plates at 80,000 cells/well and incubated for another 24 hours. The medium was replaced with a stimulation buffer containing LiCl, per the instructions of the manufacturer. Ligands, including cathepsin S (1 µM), KVDGTS (100 µM) and SLIGRL (10 µM) were added to wells and incubated at 37°C for 1 hour and IP1 levels determined. This assay was performed on multiple wells containing each ligand on three occasions. Error bars represent SEM.
# [1] = test system: salmon sperm transfected HeLa cells; experiment: IP1 (IP-One HTRF) assay in salmon sperm DNA-transfected HeLa cells; type: cell-based; settings: cathepsin S 1 µM, 1 hour, 37°C
# Description: as §1
# [2] = test system: PKC (βII Ser660) phosphorylation in PAR2-transfected HeLa cells; experiment: Western blot for p-PKC (Ser660) in PAR2-transfected HeLa cells; type: cell-based, human; settings: 10 minutes, room temperature; SLIGRL 10 µM, SLIGKVDGTS 10 µM, KVDGTS 100 µM, cathepsin S 1 µM
# Description: HeLa cells were transfected with PAR2 plasmid DNA as described above. Untransfected HeLa cells were plated as a control. Forty-eight hours after transfection, cells were rinsed with PBS three times. Transfected HeLa cells were incubated with either SLIGRL (10 µM), SLIGKVDGTS (10 µM), KVDGTS (100 µM), or cathepsin S (1 µM) at room temperature for 10 minutes. Untransfected HeLa cells were treated with SLIGRL (10 µM) in a similar manner. A subset of transfected HeLa cells remained untreated and served as a negative control. After incubation, cells were harvested, pelleted and lysed by sequential freeze-thaw cycles. Cell lysates were centrifuged at 4°C for 15 minutes. Supernatants were collected and protein concentrations were determined by Bradford assay. Equal amounts of cell lysates were loaded onto NuPAGE Novex Bis-Tris mini gels, electrophoresed and transferred to nitrocellulose membranes using standard protocols. The blot was first probed with rabbit anti-phospho-PKC (βII Ser660) antibody (Cell Signalling Technology, Danvers, MA), and later reprobed with a mouse anti-actin antibody to identify the control actin band at 42 kDa. Primary antibodies were labeled with HRP-conjugated donkey anti-rabbit antibody and HRP-conjugated donkey anti-mouse antibody, respectively, followed by detection of the position of the antigen on the blot.
# [3] = test system: luciferase-PAR2 and PAR2 mutants; experiment: Western blot for Gaussia luciferase in supernatants; type: cell-based, human; settings: luciferase-PAR2, PAR2M1, PAR2M2, PAR2M3; cathepsin S 2 µM
# Description: HeLa cells were transfected and treated with cathepsin S as described for the luciferase assay. After treatment with cathepsin S, cells were pelleted at 14,000 rpm for 3 minutes. Supernatants (100 µl) were collected and denatured with 1 µl of 10% SDS. Equal volumes of supernatants were prepared in loading buffer, heated at 90°C for 5 minutes, run on NuPAGE Novex Bis-Tris mini gels and transferred to nitrocellulose membranes using standard protocols. The blot was probed with a primary rabbit anti-Gaussia luciferase antibody. HRP-conjugated donkey anti-rabbit antibody was used to identify the relevant bands on the membrane.
# [4] = test system: PAR2M3 (leucine38 and glycine40 to alanines); experiment: Calcium imaging in HeLa cells transfected with PAR2M3; type: cell-based, human; settings: cathepsin S 2 µM, KVDGTS 100 µM
# Description: Human PAR2 cDNA was cloned as an Xho I-Hind III fragment (1206 bp) into pcDNA3.1(−). 10 µg of DNA were diluted into 0.5 ml of DMEM and mixed with 0.5 ml of DMEM containing 10 µl of Lipofectamine 2000 transfection reagent and incubated at room temperature for 20 minutes. HeLa cells were grown to confluence, trypsinized and 1×10^6 cells were pelleted in a 15 ml tube by centrifugation at 1000 rpm for 5 minutes. The DMEM-Lipofectamine 2000-DNA mixture (1 ml) was added to the cell pellet, resuspended gently and incubated at room temperature for 20 minutes. Four ml of complete DMEM with 10% FBS were added to the tube, mixed by inverting the tube several times, plated into a 96-well glass bottom plate at 20,000 cells/well, and placed in a 37°C CO2 incubator. HeLa cells transfected with vector alone or salmon sperm DNA (shown in the figures) were plated as a control. The medium was aspirated two days after transfection. Fura-2 was used as a ratiometric calcium-sensitive indicator as follows. […]
# Imaging was performed using a Zeiss Axiovert 200 M microscope platform equipped with a flipping filter wheel for ratiometric imaging. […] The software later analyzed all images taken during each excitation period. Typically, ratiometric changes were measured in 10–20 cells in each image. An average of the fluorescence of the cells in each image was calculated and plotted against time in seconds. […]
# PAR2 = settings: proteases expressed in the skin; cited from earlier work
# From the text: PAR2 signaling has been implicated in the development of inflammatory and bowel diseases, asthma, itch and pain. The receptor is expressed on many types of cells including keratinocytes, sensory neurons, fibroblasts, endothelial cells, and inflammatory cells, [3]. Consistent with this broad expression, PAR2 is involved in numerous physiologic and pathophysiologic processes in response to both endogenous and exogenous proteases.
molecule,measurement,setting,value
B1,IP1 level,"human PAR2; KVDGTS and SLIGRL after subtracting baseline values, cathepsin S 'in this particular experiment'",122 nM
same,IP1 generation (in words),human PAR2; three occasions,consistently generated higher levels of IP1 than either SLIGRL or KVDGTS
same,IP1 level in salmon sperm transfected cells (in words),[1],no effect above baseline IP1 levels
same,PKC Ser660 phosphorylation (in words),[2],induce PKC Ser660 phosphorylation
same,"receptor cleavage, anti-luciferase western blot (in words)",[3],confirmed the results of the luminescence assay
same,calcium response on PAR2M3 (in words),[4],did not induce calcium responses; also recorded: not PAR2M2 or PAR2M3
same,PAR2 activation (in words),PAR2,activated
